Assay results from paper PMC9482650, “Quantitative fragmentomics allow affinity mapping of interactomes” (Nature Communications, 2022).

T1: MPP6, Q9NZW5
T1 sequence (Q9NZW5 125-219, limits assumed, looked up): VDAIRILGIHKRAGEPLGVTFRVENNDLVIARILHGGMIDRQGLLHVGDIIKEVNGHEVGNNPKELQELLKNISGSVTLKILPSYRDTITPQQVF

T2: MPP7, Q5T2T1
T2 sequence (Q5T2T1 134-230, limits assumed, looked up): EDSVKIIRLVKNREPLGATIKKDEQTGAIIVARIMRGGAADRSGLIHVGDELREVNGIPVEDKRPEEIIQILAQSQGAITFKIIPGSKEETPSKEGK

T3: CARD11, Q9BXL7
T3 sequence (Q9BXL7 662-765, limits assumed, looked up): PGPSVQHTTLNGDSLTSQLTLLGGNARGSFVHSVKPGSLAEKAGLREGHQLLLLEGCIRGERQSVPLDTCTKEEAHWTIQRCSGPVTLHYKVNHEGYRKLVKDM

T4: LNX2_3, Q8N448
T4 sequence (Q8N448 463-564, limits assumed, looked up): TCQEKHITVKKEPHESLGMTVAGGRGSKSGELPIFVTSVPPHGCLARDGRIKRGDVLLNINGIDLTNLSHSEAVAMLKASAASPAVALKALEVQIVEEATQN

T5: MPP2, Q14168
T5 sequence (Q14168 180-250, limits assumed, looked up): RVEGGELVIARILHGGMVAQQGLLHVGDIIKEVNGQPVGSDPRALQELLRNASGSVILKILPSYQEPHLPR

T6: RHPN1, Q8TCX5
T6 sequence (Q8TCX5 508-602, limits assumed, looked up): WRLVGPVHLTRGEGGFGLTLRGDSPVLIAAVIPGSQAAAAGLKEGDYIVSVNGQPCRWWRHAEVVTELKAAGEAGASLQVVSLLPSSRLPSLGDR

T7: DLG3_3, Q92796
T7 sequence (Q92796 374-475, limits assumed, looked up): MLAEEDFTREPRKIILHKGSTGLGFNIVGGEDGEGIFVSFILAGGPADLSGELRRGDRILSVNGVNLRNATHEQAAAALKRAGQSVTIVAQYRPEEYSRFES

T8: GRIP1_2, Q9Y3R0
T8 sequence (Q9Y3R0 145-248, limits assumed, looked up): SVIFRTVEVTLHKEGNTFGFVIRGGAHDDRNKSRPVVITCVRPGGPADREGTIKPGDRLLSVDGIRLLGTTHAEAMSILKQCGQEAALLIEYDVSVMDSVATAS

T9: DLG3_2, Q92796
T9 sequence (Q92796 221-321, limits assumed, looked up): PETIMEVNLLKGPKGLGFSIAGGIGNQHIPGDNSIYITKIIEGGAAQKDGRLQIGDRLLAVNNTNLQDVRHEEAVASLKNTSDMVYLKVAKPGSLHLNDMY

T10: SNTG2, Q9NY99
T10 sequence (Q9NY99 68-166, limits assumed, looked up): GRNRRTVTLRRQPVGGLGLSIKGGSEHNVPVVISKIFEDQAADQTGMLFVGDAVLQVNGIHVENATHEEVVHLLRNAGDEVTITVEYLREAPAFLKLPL

T11: SIPA1L2, Q9P2F8
T11 sequence (Q9P2F8 945-1036, limits assumed, looked up): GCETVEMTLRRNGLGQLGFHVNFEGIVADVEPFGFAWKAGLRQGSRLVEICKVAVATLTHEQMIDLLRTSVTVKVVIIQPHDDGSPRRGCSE


Tests used:
Test in all cases: holdup assay
Parameters in all cases: key: below the threshold = too weak to quantify, mostly under pKd 3.1 to 4
Details in all cases: plain residues with an end cap or a label only (N-terminal biotin on a linker: ado-ado)
FRMPD2_2, Q68DX3 = biological target: FRMPD2_2, Q68DX3
Chain of FRMPD2_2, Q68DX3 (Q68DX3 944-1038): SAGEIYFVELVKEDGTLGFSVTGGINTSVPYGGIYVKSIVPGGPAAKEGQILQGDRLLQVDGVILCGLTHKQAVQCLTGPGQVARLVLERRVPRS

MPP6, Q9NZW5 = biological target: T1, MPP6, Q9NZW5
GIPC2, Q8TF65 = biological target: GIPC2, Q8TF65
Chain of GIPC2, Q8TF65 (Q8TF65 112-203): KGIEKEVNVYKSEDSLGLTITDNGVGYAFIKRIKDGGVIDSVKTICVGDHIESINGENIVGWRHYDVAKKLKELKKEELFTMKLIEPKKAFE

MPP7, Q5T2T1 = biological target: T2, MPP7, Q5T2T1
CARD11, Q9BXL7 = biological target: T3, CARD11, Q9BXL7
GRIP2_5, Q9C0E4 = biological target: GRIP2_5, Q9C0E4
Chain of GRIP2_5, Q9C0E4 (Q9C0E4 544-642): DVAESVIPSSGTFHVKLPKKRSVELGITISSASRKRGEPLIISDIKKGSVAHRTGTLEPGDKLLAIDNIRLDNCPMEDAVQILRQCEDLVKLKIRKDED

LNX2_3, Q8N448 = biological target: T4, LNX2_3, Q8N448
SCRIB_3, Q14160 = biological target: SCRIB_3, Q14160
Chain of SCRIB_3, Q14160 (Q14160 999-1103): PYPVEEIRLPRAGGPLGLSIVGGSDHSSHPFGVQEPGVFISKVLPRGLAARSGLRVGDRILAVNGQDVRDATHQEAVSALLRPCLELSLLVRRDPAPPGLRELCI

MPP2, Q14168 = biological target: T5, MPP2, Q14168
RHPN1, Q8TCX5 = biological target: T6, RHPN1, Q8TCX5
DLG3_3, Q92796 = biological target: T7, DLG3_3, Q92796
PDLIM1, O00151 = biological target: PDLIM1, O00151
Chain of PDLIM1, O00151 (O00151 1-87): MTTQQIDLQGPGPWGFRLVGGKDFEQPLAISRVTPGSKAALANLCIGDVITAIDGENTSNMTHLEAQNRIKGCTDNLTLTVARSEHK

ARHGEF12, Q9NZN5-2 = biological target: ARHGEF12, Q9NZN5-2
Chain of ARHGEF12, Q9NZN5-2 (Q9NZN5 other isoform, or with tags, fused parts or gaps): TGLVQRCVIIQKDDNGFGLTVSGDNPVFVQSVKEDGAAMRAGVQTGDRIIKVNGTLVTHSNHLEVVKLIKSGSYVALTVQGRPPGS

NHERF4_1, Q86UT5-2 = biological target: NHERF4_1, Q86UT5-2
Chain of NHERF4_1, Q86UT5-2 (Q86UT5 other isoform, or with tags, fused parts or gaps): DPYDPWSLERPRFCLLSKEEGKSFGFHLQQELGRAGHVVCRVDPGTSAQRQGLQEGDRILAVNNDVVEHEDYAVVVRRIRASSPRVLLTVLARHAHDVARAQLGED

IL16_4, Q14005 = biological target: IL16_4, Q14005
Chain of IL16_4, Q14005 (Q14005 1229-1329): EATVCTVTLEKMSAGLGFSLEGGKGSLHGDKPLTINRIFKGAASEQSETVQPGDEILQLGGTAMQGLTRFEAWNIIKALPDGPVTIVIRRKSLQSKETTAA

GRIP1_2, Q9Y3R0 = biological target: T8, GRIP1_2, Q9Y3R0
PTPN3, P26045 = biological target: PTPN3, P26045
Chain of PTPN3, P26045 (P26045 505-587): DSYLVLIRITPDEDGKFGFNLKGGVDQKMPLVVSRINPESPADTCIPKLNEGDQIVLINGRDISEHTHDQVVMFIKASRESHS

GRIP2_4, Q9C0E4 = biological target: GRIP2_4, Q9C0E4
Chain of GRIP2_4, Q9C0E4 (Q9C0E4 446-548): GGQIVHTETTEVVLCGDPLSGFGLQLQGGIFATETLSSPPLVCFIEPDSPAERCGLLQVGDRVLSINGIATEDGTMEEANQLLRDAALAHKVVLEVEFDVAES

NOS1, P29475 = biological target: NOS1, P29475
Chain of NOS1, P29475 (P29475 9-101): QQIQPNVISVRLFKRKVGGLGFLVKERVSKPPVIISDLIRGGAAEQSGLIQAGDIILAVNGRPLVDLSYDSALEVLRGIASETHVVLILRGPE

GRIP2_7, Q9C0E4 = biological target: GRIP2_7, Q9C0E4
Chain of GRIP2_7, Q9C0E4 (Q9C0E4 934-1023): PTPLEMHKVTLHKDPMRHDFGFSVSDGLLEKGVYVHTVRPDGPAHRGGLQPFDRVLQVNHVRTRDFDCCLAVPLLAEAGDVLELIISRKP

SCRIB_1, Q14160 = biological target: SCRIB_1, Q14160
Chain of SCRIB_1, Q14160 (Q14160 718-814): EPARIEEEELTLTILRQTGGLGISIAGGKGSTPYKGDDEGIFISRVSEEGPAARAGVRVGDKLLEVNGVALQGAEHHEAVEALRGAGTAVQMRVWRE

DLG3_2, Q92796 = biological target: T9, DLG3_2, Q92796
Inadl_4, Q8NI35 = biological target: Inadl_4, Q8NI35
Chain of Inadl_4, Q8NI35 (Q8NI35 547-651): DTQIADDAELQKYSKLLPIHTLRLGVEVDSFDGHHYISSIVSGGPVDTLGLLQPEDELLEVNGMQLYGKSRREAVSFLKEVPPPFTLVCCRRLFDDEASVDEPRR

SNTG2, Q9NY99 = biological target: T10, SNTG2, Q9NY99
TJP2_1, Q9UDY2 = biological target: TJP2_1, Q9UDY2
Chain of TJP2_1, Q9UDY2 (Q9UDY2 24-128): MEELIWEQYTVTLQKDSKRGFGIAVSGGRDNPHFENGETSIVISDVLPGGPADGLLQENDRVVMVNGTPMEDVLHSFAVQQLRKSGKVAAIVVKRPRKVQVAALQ

SIPA1L2, Q9P2F8 = biological target: T11, SIPA1L2, Q9P2F8

| Binder | pKd (FRMPD2_2, Q68DX3) | pKd (MPP6, Q9NZW5) | pKd (GIPC2, Q8TF65) | pKd (MPP7, Q5T2T1) | pKd (CARD11, Q9BXL7) | pKd (GRIP2_5, Q9C0E4) | pKd (LNX2_3, Q8N448) | pKd (SCRIB_3, Q14160) | pKd (MPP2, Q14168) | pKd (RHPN1, Q8TCX5) | pKd (DLG3_3, Q92796) | pKd (PDLIM1, O00151) | pKd (ARHGEF12, Q9NZN5-2) | pKd (NHERF4_1, Q86UT5-2) | pKd (IL16_4, Q14005) | pKd (GRIP1_2, Q9Y3R0) | pKd (PTPN3, P26045) | pKd (GRIP2_4, Q9C0E4) | pKd (NOS1, P29475) | pKd (GRIP2_7, Q9C0E4) | further results |
| --- | --- | --- | --- | --- | --- | --- | --- | --- | --- | --- | --- | --- | --- | --- | --- | --- | --- | --- | --- | --- | --- |
| SRPRPDDLEI [GJA1, P17302] | below the threshold | 3.62 | below the threshold | below the threshold | below the threshold | below the threshold | below the threshold | below the threshold | below the threshold | below the threshold | below the threshold | below the threshold | below the threshold | below the threshold | below the threshold | below the threshold | below the threshold | below the threshold | below the threshold | below the threshold | pKd (SCRIB_1, Q14160): below the threshold; pKd (DLG3_2, Q92796): below the threshold; pKd (Inadl_4, Q8NI35): below the threshold; pKd (SNTG2, Q9NY99): below the threshold; pKd (TJP2_1, Q9UDY2): below the threshold; pKd (SIPA1L2, Q9P2F8): below the threshold |
| RALRASESGI [ADGRE5, P48960] | below the threshold | 3.59 | below the threshold | below the threshold | below the threshold | below the threshold | below the threshold | below the threshold | below the threshold | below the threshold | below the threshold | below the threshold | below the threshold | below the threshold | below the threshold | below the threshold | 4.13 | below the threshold | below the threshold | below the threshold | pKd (SCRIB_1, Q14160): below the threshold; pKd (DLG3_2, Q92796): below the threshold; pKd (Inadl_4, Q8NI35): below the threshold; pKd (SNTG2, Q9NY99): below the threshold; pKd (TJP2_1, Q9UDY2): below the threshold; pKd (SIPA1L2, Q9P2F8): below the threshold |

Further lines, with some results ahead:

| pKd (FRMPD2_2, Q68DX3) | pKd (MPP6, Q9NZW5) | pKd (GIPC2, Q8TF65) | pKd (MPP7, Q5T2T1) | pKd (CARD11, Q9BXL7) | pKd (GRIP2_5, Q9C0E4) | pKd (LNX2_3, Q8N448) | pKd (SCRIB_3, Q14160) | pKd (MPP2, Q14168) | pKd (RHPN1, Q8TCX5) | pKd (DLG3_3, Q92796) | pKd (PDLIM1, O00151) | pKd (ARHGEF12, Q9NZN5-2) | pKd (NHERF4_1, Q86UT5-2) | pKd (IL16_4, Q14005) | pKd (GRIP1_2, Q9Y3R0) | pKd (PTPN3, P26045) | pKd (GRIP2_4, Q9C0E4) | pKd (NOS1, P29475) | pKd (GRIP2_7, Q9C0E4) | Binder | further results |
| --- | --- | --- | --- | --- | --- | --- | --- | --- | --- | --- | --- | --- | --- | --- | --- | --- | --- | --- | --- | --- | --- |
| below the threshold | below the threshold | below the threshold | below the threshold | below the threshold | below the threshold | below the threshold | below the threshold | below the threshold | below the threshold | below the threshold | below the threshold | below the threshold | 3.57 | below the threshold | below the threshold | below the threshold | below the threshold | 3.56 | below the threshold | NVYGTESVKI [GRIA3, P42263] | pKd (SCRIB_1, Q14160): below the threshold; pKd (DLG3_2, Q92796): below the threshold; pKd (Inadl_4, Q8NI35): below the threshold; pKd (SNTG2, Q9NY99): below the threshold; pKd (TJP2_1, Q9UDY2): below the threshold; pKd (SIPA1L2, Q9P2F8): below the threshold |
| below the threshold | 3.91 | below the threshold | below the threshold | below the threshold | below the threshold | below the threshold | 3.92 | below the threshold | below the threshold | below the threshold | below the threshold | below the threshold | 3.85 | below the threshold | below the threshold | 3.78 | below the threshold | 3.67 | below the threshold | GCQGETEDVL [PTH2R, P49190] | pKd (SCRIB_1, Q14160): below the threshold; pKd (DLG3_2, Q92796): below the threshold; pKd (Inadl_4, Q8NI35): below the threshold; pKd (SNTG2, Q9NY99): below the threshold; pKd (TJP2_1, Q9UDY2): below the threshold; pKd (SIPA1L2, Q9P2F8): below the threshold |
| 4.29 | below the threshold | below the threshold | below the threshold | below the threshold | below the threshold | below the threshold | 4.06 | below the threshold | 4.85 | below the threshold | below the threshold | 4.47 | 4.2 | 3.67 | below the threshold | 3.75 | below the threshold | 3.98 | below the threshold | PMESGICTIV [TTC24, A2A3L6] | pKd (SCRIB_1, Q14160): 3.92; pKd (DLG3_2, Q92796): 4.89; pKd (Inadl_4, Q8NI35): below the threshold; pKd (SNTG2, Q9NY99): 4.1; pKd (TJP2_1, Q9UDY2): 3.81; pKd (SIPA1L2, Q9P2F8): below the threshold |
